Measurements reported in publication doi:10.1101/258194 (bioRxiv, 2018).
Blank lines part the entries; values can stand above or below the binder they belong to.

Columns and labels:
[1] = molecular target: T1, Zip2^499-704 (XPF-like region), recombinant, co-expressed with His6-Spo16 (S. cerevisiae, UniProt P53061 499-704); assay: SEC-MALS
T1 sequence: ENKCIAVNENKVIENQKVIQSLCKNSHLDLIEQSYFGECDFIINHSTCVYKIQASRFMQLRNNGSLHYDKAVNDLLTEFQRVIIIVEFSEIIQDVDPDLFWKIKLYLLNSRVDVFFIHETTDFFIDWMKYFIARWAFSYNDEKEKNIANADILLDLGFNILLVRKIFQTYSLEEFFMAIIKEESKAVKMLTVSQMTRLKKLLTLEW

[2] = molecular target: T2, Zip2^499-704, surface-lysine methylated (Form 1 crystals) (S. cerevisiae, UniProt P53061 499-704); assay: crystal structure
T2 sequence: T1 sequence

stoichiometry N [1]: 1
B1: His6-Spo16 (full-length Spo16 with TEV-cleavable N-terminal His6-tag), recombinant (natural protein)
chain: SEFFWDVQKIQEISNVEEHSVVKCVTVNTSRLISQLNEELQDEESGVNFIVTQLQLLINNVYEKIQKSPGVPAHRSLMINLNFTRLKFSIAYWDILLERSLDLINGPSKTGARYFITEVTPVDRSRYVENNQYFLAFKANQRLTRNSVDMDEFIDFEILIKQIIFDLFKKNGIPDQDFEAILSRFHNLESLVVAFNE

binding result [2]: binds
B2: His6-Spo16, surface-lysine methylated (Form 1 crystals) (natural protein)
chain: B1 chain
modifications: surface lysines dimethylated (positions not listed)
